# The DeepSol protein solubility set
# Assay: soluble on expression in E. coli; label from the status in PepcDB or PDB records
row,Sequence,soluble on expression in E. coli
1,GPGSMGVVLRELRMRQESATFLLAAVSVNPLLRCAWEDLACLVSRETQLAELDAALDGLEPFFMVDIFAAEVRGLLGVTPVSSARLRIAAAAASAPSDGFEPSPPCSAPPEGHAATTTATAAKAGTRTSPLLPPPRTNAGATPPIPAAALSNAWECFSLLFPDTPFCLSQLAHFYYHQRNRLDRAEALYQRIRALDPHYLAILYDYSNVLYTKRDRLGLSSLAQSVYQADAFRAETNFAVGNYYVLLGQHDRAALHFHRATAIDPQCAEAWLLLGHAYVEVKNTTAAVEAYRTAVELNERDYRGWYNLGQIYELLEAYHHALYYYWHTTSLRPADPGMWVAVANCLEHDGRIAESIACLERAETYDSSSSPSYPAYVRRIATHHIANSSYTRACVYLEKLAQSPAASTEDLLLALPFIVQHYVQRARSSVEGFARSSSYDTVLFSPGANNVSLMSSPASGAVAAGRTALHHARAAAALQHLNKAEEHLSTMAELVMPSGHNGAGNEEAAQTPATSAAAGESEQGGAENTAPQRAAEDAPHRRRTRQPRSGAAANASVSASASAALAAVAASTAPSAGDVPPVAFVRSRHQEIGMLRAQAMHLLQIGAGASGSTIPVAASASASVATQPSSSSSQQQQQQQQQRHQQHRNPFVSQLLGRYQ,not soluble
2,LEYLKNNCKVIIVDMHAEATSEKCALAWYLDGRVSCVLGTHTHVQTADERILPFGTAFISDVGMTGPYDGIIGVNREIVIQKFLTHMPVRFEVATGRVQFNAVYLEIDEKTGKTTGIERIYEILEV,not soluble
3,MADKYLTQSPAGEFVMFASDDGEVRVECRFEQETLWLPQATIANLYQITPQAVTQHIKAIYEEGELEQNATCKSYLQVQQEGSRQVSRNRLHYSLPVILAVGYRVRSPRGTQFRQWATQTLQKYLIKGFVMDDERLKNPPVGSSAVPDYFDEMLERIRDIRASERRVYLRVREIFALAADYQPSLKETTQFFQTIQNKLHFACTGHTAAELIHQRADASQPHMGLTSYKGEEVRKDDVTVAKNYLTQDEVSELNRVVNMWLDFAEDQARRRQQIFLRDWQDKLDQFLQFNDREVLQGAGKVTKKMADEKAQAEYSQFAEQQRRLKEAEGEKDIAGLLQWETEPKK,not soluble
4,MERDERPPSGGGGGGGSAGFLEPPAALPPPPRNGFCQDELAELDPGTNGETDSLTLGQGHIPVSVPDDRAEQRTCLICGDRATGLHYGIISCEGCKGFFKRSICNKRVYRCSRDKNCVMSRKQRNRCQYCRLLKCLQMGMNRKAIREDGMPGGRNKSIGPVQISEEEIERIMSGQEFEEEANHWSNHGDSDHSSPGNRASESNQPSPGSTLSSSRSVELNGFMAFRDQYMGMSVPPHYQYIPHLFSYSGHSPLLPPQARSLDPQSYSLIHQLMSAEDLEPLGTPMLIEDGYAVTQAELFALLCRLADELLFRQIAWIKKLPFFCELSIKDYTCLLSSTWQELILLSSLTVYSKQIFGELADVTAKYSPSDEELHRFSDEGMEVIERLIYLYHKFHQLKVSNEEYACMKAINFLNQDIRGLTSASQLEQLNKRYWYICQDFTEYKYTHQPNRFPDLMMCLPEIRYIAGKMVNVPLEQLPLLFKVVLHSCKTSTVKE,not soluble
5,MGSDKIHHHHHHMKTVLDVKNLSVDFAQDGRIVHAVRGVSFHVGKGETVALVGESGSGKSVTALSSVDLLPPSAQLNGSITYNGEQMIGASEAALRRVRGNDISFIFQEPMTSLNPLHTLERQITESLTLHQGLRGQAARDRIIQLLTKVGIRDPETRLGAYPHQLSGGQRQRVMIAMALANGPELLIADEPTTALDVTIQAQILDLLAELKRRERMSLLFITHDLAIVRRIADRVCVMQGGEIVEQGPTKTIFDNPQHPYTQKLLGAEPSGRPDPVPEDAKEILTTDKLRIWFPIQRGLLRRTVGHVKAVNEATLSVRQGETLGVVGESGSGKTTLALAIMRLIRSEGPIDFMDQHIPSLGKTELRTLRRDIQIVFQDPFGSLSPRMTIEQIVAEGLTVQGVNSTGRRRRVSEILEEVGLDPAMMHRYPHEFSGGQRQRIAIARAMILRPKLVVLDEPTSALDMTVQVQIVDLLRRLQRDHKLAFLFISHDLKVVRALSHKVMVMKQGDVVEAGRTEDLFANPRTTYTRELMKAAFGDASAA,not soluble
6,MTTPAVKMVVAYVTAPSKEVAMTVARTTVTEALAACANVIPEVTSVYKWQGKIEEDQEHVVILKTVESKVEELSARVRSLHPAETPCFFTLAIDKITPDFGGWIVDSTNSSTAKH,soluble
7,MLPPPRREPDWSAQAFRWHRQGLAGWLEAVHEPHAVALDRLACVDAQREQLLANTRQFVAGLPANNVLLTGARGTGKSSLVKALLPEFGRDGLRLIEIDREHLADLPQLVELLSGRPERFVLFCDDLSFEHGDAGYKALKSALDGGLARRCDNLLVYATSNRRHLLPEQMSENREGWLRDGEIHPGEAVEEKVSLSDRFGLWLSFYPFDQDAYLAAVREWLGHFGLKYGDKAERAALQWSLSRGSRSGRVAWQFACHWAGSQKLARRSGKKLEHHHHHH,not soluble
8,MLKHIPKNISPDLLKTLMEMGHGDEIVLADANYPSASCANKLIRCDGVNIPELLDSILYLMPLDSYVDSSIQFMNVVSGDDIPKIWGTYRQMIEGHGTDLKTITYLRREDFYERSKKAYAIVATGETSLYANIILKKGVVVERENVQ,soluble
9,MNQTLLSDFGTPVERVERAIDALRNGRGVMVLDDESRENEGDMVFAAEAMTLEQMALTIRHGSGIVCLCITDERRQQLDLPMMVTHNSSQFQTAFTVTIEAAEGVTTGVSAADRLTTIRKAIADNAKPADLNRPGHVFPLRGQPGGVLSRRGHTEASIDLATLAGYKPAGVLCELTNDDGSMAHAPEVIAFAKLHDMPVVTIDDLAAYLQSRAKKAS,not soluble
10,MGSDKIHHHHHHMASIQNLYETVVGVLGDQASKVISALGEITVECLPEHYISVMTALRDHEELHFELLVDLCGVDYSTYKNEVWQGKRFAVVSQLLSVKNNQRIRVRVWVSDDDFPVVESVVDIYNSADWYEREAFDMYGIMFNNHPDLRRILTDYGFVGHPFRKDFPISGYVEMRYDEEQKRVIYQPVTIEPREITPRIVREENYGGQ,not soluble
11,QTTKRIRDQEKATALQTAEMVAEAPMTAAALESGKKQKELQSYTKRVQKITGTEFVVVMDMNGIRKTHPDPSKIGKKFRGGDESEVLKGHVHISTASGTLGKSQRAFVPVYAENGKQVGAVAVGITVNEIDEVISHSLRP,not soluble
12,HLGEHEVPGHLMDFVTTYSTNLAVPQRRDADDERVLAGKKLFYQANCVACHVPKYVTRRDAAQPEHRFQLIWPYTDMLLHDMGDGLADGVSEEQANGREWRTPPLWGIGLTRLVNPSATWLHDGRARTLLEAVLWHGGEAQAARDRVVAMSPGERADLIRFLESL,not soluble
13,SATAQLSHCITIHKASKETVFPSQITNEHESLKMVKKLFATSISCITYLRGLFPESSYGERHLDDLSLKILREDKKCPGSLHIIRWIQGCFDALEKRYLRMAVLTLYTDPMGSEKVTEMYQFKFKYTKEGATMDFDSHSSSTSFESGTNNEDIKKASVLLIRKLYILMQDLEPLPNNVVLTMKLHYYNAVTPHDYQPLGFKEGVNSHFLLFDKEPINVQVGFVSTGFHSMKVKVMTEATKVIDLENNLFRENSTTEIAHQGLDCDEEEECNDHIQRMNFVCSQQSSECSRKKRKVSEPVKVFIPNRK,soluble
14,MSSEYIIGRNPVIEALRSGRDINKIWIAEGAAKGQVQIVLALAKENKIILQHAPKKKLDQLVEGNHQGVIAQVAAYQYAELEDLFKVAEKRNEDPFFLILDEIEDPHNLGSIMRTADATGAHGIIIPKRRAVGLTASVAKASTGAIEYIPVARVTNLSRTIDELKERGLWIAGTDAKGKTDYRNLDGKMPIGLVIGSEGKGMSRIIGEKCDFLITLPMVGKVTSLNASVAASLLMYEVYRKRNEIGK,soluble
15,MSLNDSILEPKHRGNVREIAAIDLGSNSFHMIVARIVNGSIQVLSRLKQKVKLAEGLDENAVLNQEAITRGVNCLALFAERLQGFPMENVNVVGTYTLRRAVNNDEFLRQAAKVFPYPINIISGQTEAKTIYAGVCHTQPEKGRKLVIDIGGGSTEMIIGDDFTPLMAESRHMGCVSFATQFFTDGIISPENFQRARQSAVNKIEDLGLEYRKLGWQSVLGSSGTIKTVAQVIATNLDPNGTITAERLNALIEQTLQAKHFTELNINGLNQDRVDVFVPGLAILSAVFDVFHIQQMRYSDGALREGVIYSLEKNFQVADIRASTAEGHHHHHH,soluble
16,DNSSFDSLSPEPKSRFAMLDDVKILANGLLQLGHGLKDFVHKTKGQINDIFQKLNIFDQSFYDLSLQTSEIKEEEKELRRTTYKLQVKNEEVKNMSLELNSKLESLLEEKILLQQKVKYLEEQLTNLIQNQPETPEHPEVTSLKTFVEKQDNSIKDLLQTVEDQYKQLNQQHSQIKEIENQLRRTSIQEPTEISLSSKPRAPRTTPFLQLNEIRNVKHDGIPAECTTIYNRGEHTSGMYAIRPSNSQVFHVYCDVISGSPWTLIQHRIDGSQNFNETWENYKYGFGRLDGEFWLGLEKIYSIVKQSNYVLRIELEDWKDNKHYIEYSFYLGNHETNYTLHLVAITGNVPNAIPENKDLVFSTWDHKAKGHFNCPEGYSGGWWWHDECGENNLNGKYNKPRAKSKPERRRGLSWKSQNGRLYSIKSTKMLIHPTDSESFE,not soluble
17,MGRLSGKTILVTGAASGIGRAALDLFAREGASLVAVDREERLLAEAVAALEAEAIAVVADVSDPKAVEAVFAEALEEFGRLHGVAHFAGVAHSALSWNLPLEAWEKVLRVNLTGSFLVARKAGEVLEEGGSLVLTGSVAGLGAFGLAHYAAGKLGVVGLARTLALELARKGVRVNVLLPGLIQTPMTAGLPPWAWEQEVGASPLGRAGRPEEVAQAALFLLSEESAYITGQALYVDGGRSIVGPPGLPPGFGPKGGERHAHVL,soluble
18,STDDKDVLRDVWFGRIPTCFTLYQDEITEREAEPYYLLLPRVSYLTLVTDKVKKHFQKVMRQEDVSEIWFEYEGTPLKWHYPIGLLFDLLASSSALPWNITVHFKSFPEKDLLHCPSKDAVEAHFMSCMKEADALKHKSQVINEMQKKDHKQLWMGLQNDRFDQFWAINRKLMEYPPEENGFRYIPFRIYQTTTERPFIQKLFRPVAADGQLHTLGDLLREVCPSAVAPEDGEKRSQVMIHGIEPMLETPLQWLSEHLSYPDNFLHISIVPQPTD,soluble
19,MSLSETLLEKNWKFSKGDFPEAAQTDYNDTKWESVVIPHDWAIFGPFDMNNDLQNVAVTQNFEKKASLKTGRTGGLPYVGTGWYRTSFDVPADKEVTLLFDGAMSEARVYVNGQEACFWPFGYNSFHCNVTPFLNKDGKNNTLAVRLENRPQSSRWYPGAGLYRNVHLIVTEKVHIPVWGTQITTPHVSDEFAAVRLQTKIENAGEKTEIRIETEILSPDGKVVTRKENKGRINHGQPFEQNFIVNAPQLWSPESPALYKAVSKVYADNQLVDTYSTRFGIRSIEYIADKGFYLNGKHRKFQGVCNHHDLGPLGAAINVAALRHQLTLLKDMGCDAIRTSHNMPAPELVELCDEMGFMMMIEPFDEWDIAKCENGYHRYFNEWAERDMVNMLHNYRNNPCVVMWSIGNEVPTQCSPVGYKVAKFLQDICHREDPTRPVTCGMDQVTCVLANGFAAMIDIPGLNYRANRYQEAYDKLPQNLILGSETASTVSSRGVYKFPVKDKKSAQYDDHQCSSYDVEACSWSNIPDEDFALADDHHWTIGQFVWTGFDYLGEPSPYDTDAWPNHSSMFGIIDLASLPKDRYYLYRSIWNKEAETLHILPHWTWPGREGEVTPVFVYTNYPAAELFINGKSYGKQSKNNSSLKSRYRLMWMDAIYEPGEVKVVAYDKDGKAVAEKSVRTASKPHHIELVSNRNELTADGKDLAYVTVKVVDKDGNLCPADSRLINFSVKGAGKYRAGANGDPTSLDLFHLPKMHAFNGMLTAIVQTNETAGEIILTAKAGGVKAGSIRLLTKEGHHHHHH,soluble
